Source: the DeepSol protein solubility set

experiment: soluble on expression in E. coli; label from the status in PepcDB or PDB records

Sequence | soluble on expression in E. coli
MAHHHHHHMEVEWDSETVTKFYNYLCGTISYQNCVELEKDLRIETGTEEKLNKHSCSSCSDHHGDVNISCFKFKKDDDDVLGEILDSEKDQENVKASLAEITQKAFTIYSNVIAKAASKGDNKVTLETDHFLRSDILRLVFSKYITTKAKERITEISSKSTKNIVTLANPLNMNEHDLNKIETDTIANLMHDYVGLQKNFLGRDYTKLIFDELVFIEYNNQFNSFGREYKNVRTDFYCWTYITSLDRQKQRGLYKLLKELSLLPYELNKKANLSLQIGTLFQFLYFSPNKSYLKKHCQGGYGKMDNGKKVTCIYVPFVHSNDDVEIKLYRSEYNGVNEESEESEGRGKTEPNVRDATTVPSNQTDDGAPFRVIKPESDSLIFLQTRNVSYEISKTKNKFFTVNFSISGPVSTERRL | not soluble
MTDVARLLALRSFTELGARQRARALLDAGSFRELLDPFAGVQSPWLERQGIVPQADDGVVVARGLLDGQPAVLAAIEGAFQGGSLGEVSGAKIAGALELAAEDNRNGVPTRALLLLETGGVRLQEANLGLAAIAEIQAAIVDLQRYQPVVAVIAGPVGCFGGMSIAAGLCSYVLVTREARLGLNGPQVIEQEAGIAEYDSRDRPFIWSLTGGEQRFASGLADAYLADDLDEVRTSVLAYFAKGLPARPRCRRAEDYLRRLGDLDTAEQPDAAGVRRLYQGLGQGDAT | not soluble
MGSDKIHHHHHHMSQFVVDSSFWSLFPDAKIGVLLLKDYKTPAQSPDELVKLLEESNGIAQKFLTEDTFSENEVIRTYRQAYQKFKTKKGARSSIEALLKRSTSDRPVTTISPLVDIYNAASLRFGLPCGAEDLDTFVGNLQLTVTEGGDEFYLIGDETNNPTLPGEVCYKDDKGAVCRCFNWRDGERTMITDETKNAFLVMELVNSDRVEDLENALDFISQQAETFLGVVPEKYLLDCDRPGIAL | not soluble
MAHHHHHHMADLRDELDATALFGSGYVCIVGPPSSGKTTLILEYLVARERQAVHSGDGDAAAFCMEYVSARSAPHELLRHLTYRLLPHARRRRLSYECTPLEFSASLVEWVEAHPGQSELHLVVDDADALEYSAEEMNLWLSHYLRAPAEQRCTVILWLISELPLRLSNCFRYHFIARPEANSIVQWLHHQFEEERRLLAGLESEEDDSEHTVNGAPMTTLSADEVNRVVLDAFTYYATHQPMCSSVVSRDVRLLVQRVYQILPPLLLEVAATTSAVPGESGEAAVSASTTADAVKKLNARHFAAAWSQYRSDGGGGTSSAMAVSGAAASAQNTLVMALKRLGYSAVLLAFAAFYGGAVPKRQQHQVFGRIGSGERQPPLHEAKGQSHKAAVLTASAHVVTLRRLGFLYDAMLRMCTPHIDPLEFTTADVALQYVQGFVAWGLLTPVVSQRHRSYHCWIPVSTAPAVGA | not soluble
MIFTSGANKLNDNRNVRTKISSNRQSIKTAPTKAAEIPEYLQLYQTPPGDDISLTEFDDIAMERLKLLKSFENLKDSVSLYNDEFKDKFRKLCDGTKLIVFPDQKPPHQEEVYELWRRDNIGHFILRLAFCRTPENQKWLTQIEGDFLRFRLRQEREQVLDSALANVNFTIEKLGYTEKQAMIEDLEAACQFNLFEAPNKTFYKVDFIDAIELIRRGSVHLKKGFAYFPFDDLVTILVTKMKNNMMAAMARSFKHLAILEEEGRLLPRLSLLSNNAYSGKDYNGEQPDGSIIVTRHMIDKLSRRSFAPCMKQMHNHLRVNHHLKYGARRQYGLFLKGIGLSLDEAIAMMRDEFTKKITSDKFDKEYGYNIRYMYGKEGRRVAQTAMSCATIILRNPPSAVDCHGCPFRHSEKQVLKQKLGSDAILKKEQIERIAELAELNQYDKACTRYFEFMHNLEEGGLGQLITHPNQFYEESQKIVAERIAAKQESQEAPAPKIEKMDTE | not soluble
MGSDKIHHHHHHMNGKTIILANPRGFCAGVDRAISIVERALEEFGAPVYVRHEVVHNKFVVDNLREKGAVFIEDLAEVPPGATLVYSAHGVSKAVQQEAAERGFRVFDATCPLVTKVHKEVARLDAQDCEIIMIGHKGHAEVEGTMGQLAPGKMLLVETVGDVAKLEVRNPDKLAYVSQTTLSVDETKDIIAALNARFPNIRNPHKEDICYATTNRQTAVKELAEQCDIVIVVGSPNSSNSNRLREVAASRGIDAYMVDNASYLQRTWFEGKSKVGVTAGASAPEVLVREVLATIRGWGHETVREGGGAEESIVFVLPKELRREGETKPDLCKR | not soluble
GHMASMDISGGNTSRQPQKKSNQNIQVYVRVRPLNSRERCIRSAEVVDVVGPREVVTRHTLDSKLTKKFTFDRSFGPESKQCDVYSVVVSPLIEEVLNGYNCTVFAYGQTGTGKTHTMVGNETAELKSSWEDDSDIGIIPRALSHLFDELRMMEVEYTMRISYLELYNEELCDLLSTDDTTKIRIFDDSTKKGSVIIQGLEEIPVHSKDDVYKLLEKGKERRKTATTLMNAQSSRSHTVFSIVVHIRENGIEGEDMLKIGKLNLVDLAGSENVSKAGNEKGIRVRETVNINQSLLTLGRVITALVDRAPHVPYRESKLTRLLQESLGGRTKTSIIATISPGHKDIEETLSTLEYAHRAKNIQNKPEVNQKLTK | soluble
MSERQSKYFDYQGIVISSTGQDNQDSETDLVYLIQAHGKAAPKNIMYGVSKCAFVPTNLERNFDNIEEAKNLERRSKIPLKFGEVILWNESDCDHDKRIILHIKREKPIYEASSSRNGLILKVGGVIQPTSTTSFWTPLCTVTMPETEATRAEPDVWLYAWIRFETTMKSGLDPFNMTATFESFDSCDPSDQARVCEAPWNAGSPDSKFGVWRPDPKPADSDDEIDIEPREGWHLPEDKWAEVIKMQLGLYVGERLLICKELSQFDFIIPLQKPFSRGTDKTLIYPAVGEYFHFSAIWSMQHNGFLIYELQPVPLLRQHVTSVNGNLLTRVVPASIRGLFVDKEGTLGLIDDPHHLLSFFEFHPAGYEFLKAMAEVRAVRTSENKSVRYRIVRTSGMSIFENWLRDTQFVVGPVKGIRINEDTVICAKHPNVYFKIPNNLKEGIPIGGGVQFVGKRQAGVDSEIMITECSPCPAFTCKNYSVSGDTRLFQVYLKPNCDHEQLAESDSMGFVDFRELETPCRGKFLAWVRESITVNDCRRAATIMEVCSTAICPPLIAMSANSSRATSARTTPAGSSIGSRSSIQSRASAATSVSSNRFVGPSSRRTPSGTPQSSTSSRV | not soluble
HQCQGCGSTQLISVGVGTEQLETQLTNLFPEYKTVRIDRDSTRRKGSLEDYLEAIKNNEYQILIGTQMLAKGHHFPNVTLVGLIDVDSSLFSSDFRAPERLAQLFIQVAGRAGRASKPGEVILQTHHPE | not soluble
MFFKQFYDKHLSQASYLIGCQKTGEAMIIDPIRDLSSYIRVADEEGLTITHAAETHIHADFASGIRDVAIKLNASIYVSGESDDTLGYKNMPNQTHFVQHNDDIYVGNIKLKVLHTPGHTPESISFLLTDEGAGAQVPMGLFSGDFIFVGDIGRPDLLEKAVKVEGSSEIGAKQMFKSIESIKDLPNYIQIWPGHGAGSPCGKSLGAIPTSTLGYEKQTNWAFSENNEATFIDKLISDQPAPPHHFAQMKKINQFGMNLYQPYTVYPATNTNRLTFDLRSKEAYHGGHIEGTINIPYDKNFINQIGWYLNYDQEINLIGEYHLVSKATHTLQLIGYDDVAGYQLPQSKIQTRSIHSEDITGNESHILDVRNDNEWNNGHLSQAVHVPHGKLLETDLPFNRNDVIYVHCQSGIRSSIAIGILEHKGYHNIINVNEGYKDIHLSLEHHHHHH | soluble
MGSDKIHHHHHHMFVTELRFECFADTSIEAAEKAINNFLEALRANGQVLGREFAVAFNDGEFRVRLLIPERSSLANRYNSPWVKVALNGLTEAKILAPREKFIGQDINSEASNTHQPSWQLLYTSYVHMCSPLRNGDNLLPIPLYQIPATFNGDHKRMIKWQSEWQACDELQMAAATKAEFAALDEISNTDSDLFRRGWDLRGRIEYLTKIPTYYYLYRVGGESLNAELSRPCPKCGSLEWKLAEPLLDMFQFRCEPCRIVSNLSWDHQ | not soluble
MEQNIATAQVSVARPNWDKSRLVSRIVHLGCGAFHRAHQALFTHHLLEKSDSDWGICEVNLMPGNDARLIANLKAQNLLYTVAERGAESTELKIIGSMKEALHPEFDGHAGILAAMARPETAIVSLTVTEKGYCTDPASGELDVNNPLIQNDLAHPQQPKSAIGYIVEALNMRREQGLKAFTVLSCDNVRENGHVAKAAVLGLAKARDAALAAWIADNVTFPCTMVDRIVPAATEETLQLVADQLGVYDPCAIACEPFRQWVIEDNFVNGRPDWDTVGAQFVADVVPFEMMKLRMLNGSHSFLAYLGYLGGYDTIADTMTNPAYRRAALALMLDEQAPTLSMPEGTDLEGYANLLIARFTNPSLKHRTWQIAMDGSQKLPQRLLDPVRLHLQQGDDYRRLTLGVAGWMRYVGGVDEQGKTIDVVDPLLAQYQAIHQQYQTPEERVRGLLAIESIFGNDLPKNHEFVQAVTDAYQQLLQNGAKATVEALAK | not soluble
MAWYEGAFFYQIFPDRFFRAGPPGRPAPAGPFEPWEAPPTLRGFKGGTLWGVAEKLPYLLDLGVEAIYLNPVFASTANHRYHTVDYFQVDPILGGNEALRHLLEVAHAHGVRVILDGVFNHTGRGFFAFQHLMENGEQSPYRDWYHVKGFPLKAYTAHPNYEAWWGNPELPKLKVETPAVREYLLAVAEHWIRFGVDGWRLDVPNEIPDPTFWREFRQRVKGANPEAYIVGEIWEEADFWLQGDMFDAVMNYPLARAVLGFVGGEALDRDLAAQTGLGRIEPLQALAFSHRLEDLFGRYRPEVVRAQMNLLTSHDTPRLLSLMRGSVERARLALALLFLLPGNPTVYYGEEVGMAGGKDPENRGGMVWEEARWQKDLRETVKRLARLRKEHPALRTAPYLRIYAQDGHLAFARGPYLAVVNASPHPFRQDFPLHGVFPRGGRAVDLLSGEVCTPQGGRLCGPVLPPFSLALWREA | soluble
GPGSMEGPPPVCFRQCSFTYGAEPSTLHISQQCFSDYVWILVTEDDTCVPGVVLRFDPHDAGPCVGCESLNNLPSLPCEYLLGVRDHALTNILSSAIAHAIQSVGEQRPLLLCVSAAKTAKRLQTTEERMSFVRMVREKVVALAKGETC | not soluble
MKTLTEIKQTPKGIIKADESFNQVKDKIRLPRRILYLGCGSSHFLAKLLAMVTNMHGGTGVALPCSEFLYSKEAYPIGKPELVVGISRSGETTEVLLALEKINTPKLGISAYESSLTRACDYSLVVPTIEESVVMTHSFTAFYFAYLQLLRHSYGLPLLEATEVAKATEKALEYENYIKEIVEDFDFQNVIFLGSGLLYPVALEASLKMKEMAIFWSEAYPTFEVRHGFKAIADENTLVVLMAQELFEWHKKLVNEFKGQRARVLLISNSQQEFGQDYSIEVPRLSKDATPIPYLPVVQLLSYYKAVARGLNPDNPRFLDKVVRWLEHHHHHH | soluble
GSCKLPVKKATVVYQGERVKIQEKFKNGMLHGDKVSFFCKNKEKKCSYTEDAQCIDGTIEVPKCFKEHSSLAFWKTDASDVKPCA | soluble
